Test results: the supplement of paper PMC10065799, “High-throughput profiling of sequence recognition by tyrosine kinases and SH2 domains using bacterial peptide display” (eLife, 2023)

How the values were obtained:
AncSZ = test: phosphorylation enrichment, bacterial display (enrichment ratio); higher = better substrate or ligand; peptides without Tyr show the background
EPHB1 = EPHB1 (UniProt P54762); test: as above
EPHB2 = EPHB2 (UniProt P29323); test: as above
FGFR1 = FGFR1 (UniProt P11362); test: as above
FGFR3 = FGFR3 (UniProt P22607); test: as above
Chain of FGFR3 (P22607 whole entry, looked up): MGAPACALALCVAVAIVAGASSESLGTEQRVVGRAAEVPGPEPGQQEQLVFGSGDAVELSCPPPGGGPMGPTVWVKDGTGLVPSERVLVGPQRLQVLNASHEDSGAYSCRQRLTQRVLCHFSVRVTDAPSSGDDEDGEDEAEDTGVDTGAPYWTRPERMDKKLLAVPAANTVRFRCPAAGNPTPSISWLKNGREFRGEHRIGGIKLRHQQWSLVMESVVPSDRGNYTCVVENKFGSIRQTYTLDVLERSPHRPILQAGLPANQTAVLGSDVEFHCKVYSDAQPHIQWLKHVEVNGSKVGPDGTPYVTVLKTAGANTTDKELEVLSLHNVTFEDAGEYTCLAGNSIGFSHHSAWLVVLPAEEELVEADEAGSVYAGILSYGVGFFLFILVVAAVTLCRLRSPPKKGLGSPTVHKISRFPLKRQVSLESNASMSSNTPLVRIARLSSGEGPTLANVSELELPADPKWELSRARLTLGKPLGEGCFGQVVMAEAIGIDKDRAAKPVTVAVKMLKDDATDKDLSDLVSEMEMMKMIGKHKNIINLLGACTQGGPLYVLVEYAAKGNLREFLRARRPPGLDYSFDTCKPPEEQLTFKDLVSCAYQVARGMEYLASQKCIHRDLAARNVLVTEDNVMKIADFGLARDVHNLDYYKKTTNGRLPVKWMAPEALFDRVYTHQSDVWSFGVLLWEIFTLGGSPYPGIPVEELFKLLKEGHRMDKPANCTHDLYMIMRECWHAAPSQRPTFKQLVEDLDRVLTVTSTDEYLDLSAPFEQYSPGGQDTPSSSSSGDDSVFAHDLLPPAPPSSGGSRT

Fer (mouse) = test: as above
Fes = Fes (UniProt P07332); test: as above
Chain of Fes (P07332 whole entry, looked up): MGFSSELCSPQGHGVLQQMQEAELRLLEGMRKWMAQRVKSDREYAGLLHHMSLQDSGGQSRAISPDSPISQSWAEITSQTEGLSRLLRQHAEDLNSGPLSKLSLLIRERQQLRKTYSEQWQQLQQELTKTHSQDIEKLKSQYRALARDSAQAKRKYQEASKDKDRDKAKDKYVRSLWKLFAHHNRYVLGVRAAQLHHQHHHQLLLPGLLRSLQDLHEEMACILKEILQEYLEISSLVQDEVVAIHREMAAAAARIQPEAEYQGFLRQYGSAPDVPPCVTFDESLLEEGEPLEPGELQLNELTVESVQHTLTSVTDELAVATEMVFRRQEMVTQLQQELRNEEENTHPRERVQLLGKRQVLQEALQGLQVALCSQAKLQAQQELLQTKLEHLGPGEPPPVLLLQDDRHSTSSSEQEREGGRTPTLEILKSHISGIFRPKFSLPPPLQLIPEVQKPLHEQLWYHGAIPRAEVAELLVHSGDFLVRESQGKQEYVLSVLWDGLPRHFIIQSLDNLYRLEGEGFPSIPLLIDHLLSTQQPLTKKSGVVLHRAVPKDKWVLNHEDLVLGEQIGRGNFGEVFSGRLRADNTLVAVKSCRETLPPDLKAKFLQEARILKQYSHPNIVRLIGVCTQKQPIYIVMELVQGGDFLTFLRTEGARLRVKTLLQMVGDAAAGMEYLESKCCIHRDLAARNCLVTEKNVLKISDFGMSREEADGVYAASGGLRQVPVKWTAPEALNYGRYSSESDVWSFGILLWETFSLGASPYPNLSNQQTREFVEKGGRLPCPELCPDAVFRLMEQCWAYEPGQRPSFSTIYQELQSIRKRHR

Fyn = Fyn (UniProt P06241); test: as above
Hck = Hck (UniProt P08631); test: as above
Jak2 = Jak2 (UniProt O60674); test: as above
Chain of Jak2 (O60674 whole entry, looked up): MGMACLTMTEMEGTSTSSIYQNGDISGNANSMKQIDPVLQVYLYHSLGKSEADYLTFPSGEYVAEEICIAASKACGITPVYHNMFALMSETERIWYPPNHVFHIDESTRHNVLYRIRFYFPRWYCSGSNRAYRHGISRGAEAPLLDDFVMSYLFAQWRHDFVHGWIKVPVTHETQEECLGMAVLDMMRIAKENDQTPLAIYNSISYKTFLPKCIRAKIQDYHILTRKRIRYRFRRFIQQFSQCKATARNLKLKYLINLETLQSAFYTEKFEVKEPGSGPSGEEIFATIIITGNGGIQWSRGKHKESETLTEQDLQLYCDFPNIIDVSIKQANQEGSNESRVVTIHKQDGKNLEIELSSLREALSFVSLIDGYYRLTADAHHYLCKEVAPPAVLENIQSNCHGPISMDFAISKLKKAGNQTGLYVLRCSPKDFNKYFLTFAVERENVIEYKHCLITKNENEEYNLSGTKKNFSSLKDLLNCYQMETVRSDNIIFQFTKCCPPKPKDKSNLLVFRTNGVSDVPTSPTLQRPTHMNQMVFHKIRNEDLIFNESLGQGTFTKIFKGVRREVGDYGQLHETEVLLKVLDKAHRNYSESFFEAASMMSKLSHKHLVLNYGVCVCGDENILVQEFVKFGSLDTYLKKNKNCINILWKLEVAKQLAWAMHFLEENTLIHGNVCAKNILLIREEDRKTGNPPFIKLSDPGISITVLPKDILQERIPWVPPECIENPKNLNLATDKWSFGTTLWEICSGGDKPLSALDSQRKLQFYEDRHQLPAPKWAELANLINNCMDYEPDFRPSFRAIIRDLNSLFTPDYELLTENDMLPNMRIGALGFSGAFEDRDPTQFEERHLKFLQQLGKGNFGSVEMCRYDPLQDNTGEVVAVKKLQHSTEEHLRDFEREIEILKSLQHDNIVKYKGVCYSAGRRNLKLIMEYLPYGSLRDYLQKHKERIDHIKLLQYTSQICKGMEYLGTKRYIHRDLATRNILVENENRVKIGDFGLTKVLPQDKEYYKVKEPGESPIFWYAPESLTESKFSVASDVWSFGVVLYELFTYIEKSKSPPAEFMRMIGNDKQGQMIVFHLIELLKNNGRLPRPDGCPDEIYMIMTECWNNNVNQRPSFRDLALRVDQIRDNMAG

MERTK = MERTK (UniProt Q12866); test: as above
Chain of MERTK (Q12866 whole entry, looked up): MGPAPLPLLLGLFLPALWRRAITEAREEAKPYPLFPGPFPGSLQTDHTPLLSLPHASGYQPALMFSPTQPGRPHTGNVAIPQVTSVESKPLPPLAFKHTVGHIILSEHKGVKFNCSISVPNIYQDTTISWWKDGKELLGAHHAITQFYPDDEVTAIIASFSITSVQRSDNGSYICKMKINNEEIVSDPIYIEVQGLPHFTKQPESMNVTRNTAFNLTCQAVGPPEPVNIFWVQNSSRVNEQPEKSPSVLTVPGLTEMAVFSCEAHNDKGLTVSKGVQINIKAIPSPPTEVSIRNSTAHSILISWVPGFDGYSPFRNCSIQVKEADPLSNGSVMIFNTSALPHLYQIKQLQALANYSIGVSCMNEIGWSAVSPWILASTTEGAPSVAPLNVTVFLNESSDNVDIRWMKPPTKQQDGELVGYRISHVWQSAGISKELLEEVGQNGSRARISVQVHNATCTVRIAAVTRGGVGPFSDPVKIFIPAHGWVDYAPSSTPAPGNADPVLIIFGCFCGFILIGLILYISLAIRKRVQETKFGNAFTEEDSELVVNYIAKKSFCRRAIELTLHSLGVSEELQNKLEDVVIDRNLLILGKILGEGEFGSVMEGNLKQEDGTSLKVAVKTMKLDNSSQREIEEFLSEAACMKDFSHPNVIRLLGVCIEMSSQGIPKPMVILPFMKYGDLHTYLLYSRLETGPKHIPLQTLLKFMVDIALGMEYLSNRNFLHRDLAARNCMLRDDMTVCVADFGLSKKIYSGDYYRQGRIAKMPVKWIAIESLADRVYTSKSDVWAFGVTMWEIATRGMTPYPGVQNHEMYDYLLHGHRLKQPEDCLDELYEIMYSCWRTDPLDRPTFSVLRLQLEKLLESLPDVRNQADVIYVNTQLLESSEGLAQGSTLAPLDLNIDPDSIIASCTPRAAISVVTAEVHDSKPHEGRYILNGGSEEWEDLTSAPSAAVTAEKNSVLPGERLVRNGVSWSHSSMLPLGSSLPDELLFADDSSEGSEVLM

c-Abl (mouse) = test: as above
c-Src = test: as above
Grb2 SH2 = Grb2 SH2 (UniProt P62993); test: SH2 binding enrichment of the phosphorylated peptide, bacterial display (enrichment ratio); higher = better substrate or ligand; peptides without Tyr show the background
SHP2-C SH2 = test: as above
c-Src SH2 = test: as above
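Throughout, for SH2 binding enrichment of the phosphorylated peptide, bacterial display: peptide library displayed on the E. coli surface as eCPX fusions, selected cells deep-sequenced, score is each peptide's frequency after selection divided by its frequency in the input.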
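Throughout, for phosphorylation enrichment, bacterial display: 11-residue human phosphosite peptides and single-mutation variants displayed on the E. coli surface, counted by deep sequencing, each peptide's frequency after selection divided by its frequency in the unselected input library; frequency after pTyr selection over input frequency; kinase dosed for 20-30% of maximal phosphorylation in three min.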

Chain of EPHB2 (P29323 whole entry, looked up): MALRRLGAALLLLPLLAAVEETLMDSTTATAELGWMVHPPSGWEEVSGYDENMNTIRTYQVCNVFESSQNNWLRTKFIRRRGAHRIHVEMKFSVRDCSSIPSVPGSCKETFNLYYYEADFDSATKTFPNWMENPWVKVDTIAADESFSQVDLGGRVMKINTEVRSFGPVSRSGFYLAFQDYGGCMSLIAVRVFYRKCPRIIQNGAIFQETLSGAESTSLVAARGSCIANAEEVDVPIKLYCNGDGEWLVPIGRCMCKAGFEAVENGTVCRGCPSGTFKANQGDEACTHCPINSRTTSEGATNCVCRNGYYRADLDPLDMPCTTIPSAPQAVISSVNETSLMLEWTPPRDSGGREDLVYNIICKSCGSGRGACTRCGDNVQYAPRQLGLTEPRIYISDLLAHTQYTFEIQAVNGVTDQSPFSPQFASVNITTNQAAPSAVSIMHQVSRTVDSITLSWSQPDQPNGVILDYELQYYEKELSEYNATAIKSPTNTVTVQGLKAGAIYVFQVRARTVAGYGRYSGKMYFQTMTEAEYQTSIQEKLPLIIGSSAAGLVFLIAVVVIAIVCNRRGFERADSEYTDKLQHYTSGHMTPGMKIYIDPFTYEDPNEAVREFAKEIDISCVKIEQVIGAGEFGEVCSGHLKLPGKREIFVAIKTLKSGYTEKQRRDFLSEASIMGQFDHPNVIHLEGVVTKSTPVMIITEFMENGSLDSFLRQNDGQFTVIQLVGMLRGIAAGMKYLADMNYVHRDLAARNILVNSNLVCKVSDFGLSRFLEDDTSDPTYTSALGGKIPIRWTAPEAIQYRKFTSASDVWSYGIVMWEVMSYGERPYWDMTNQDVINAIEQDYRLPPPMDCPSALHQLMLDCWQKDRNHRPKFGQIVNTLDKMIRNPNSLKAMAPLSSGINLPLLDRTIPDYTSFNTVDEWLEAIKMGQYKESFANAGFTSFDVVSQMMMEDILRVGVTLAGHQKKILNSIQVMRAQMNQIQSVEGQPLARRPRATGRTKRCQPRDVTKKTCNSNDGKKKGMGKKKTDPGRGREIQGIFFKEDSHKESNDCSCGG

| Sequence | SH2 binding enrichment (Grb2 SH2) | SH2 binding enrichment (SHP2-C SH2) | SH2 binding enrichment (c-Src SH2) | phosphorylation enrichment (AncSZ) | phosphorylation enrichment (EPHB1) | phosphorylation enrichment (EPHB2) | phosphorylation enrichment (FGFR1) | phosphorylation enrichment (FGFR3) | phosphorylation enrichment (Fer (mouse)) | phosphorylation enrichment (Fes) | phosphorylation enrichment (Fyn) | phosphorylation enrichment (Hck) | phosphorylation enrichment (Jak2) | phosphorylation enrichment (MERTK) | phosphorylation enrichment (c-Abl (mouse)) | phosphorylation enrichment (c-Src) |
| --- | --- | --- | --- | --- | --- | --- | --- | --- | --- | --- | --- | --- | --- | --- | --- | --- |
| GKFFQYDTWNQ [IGF2_Y116_K120N] | 0.746 | 0.718 | 0.761 | 1.06 | 0.545 | 0.7 | 0.643 | 0.639 | 0.533 | 1.07 | 0.51 | 0.741 | 0.933 | 0.588 | 0.78 | 0.872 |
| VHHLVYHHHHH [CACNA1H_Y519] | 1.28 | 1.36 | 1.15 | 0.777 | 0.725 | 0.696 | 0.55 | 1.23 | 0.896 | 1.99 | 0.546 | 0.65 | 1.66 | 0.52 | 0.963 | 0.602 |
| CEDMEYLESKQ [BTK_Y511_A508D] | 0.805 | 0.622 | 0.454 | 1.3 | 0.652 | 0.783 | 0.476 | 0.734 | 0.652 | 1.35 | 0.494 | 0.643 | 1.22 | 0.497 | 0.828 | 0.53 |
| CTHDLYMIMRE [FGFR3_Y724] | 0.811 | 0.708 | 0.573 | 1.31 | 2.05 | 1.03 | 0.634 | 0.837 | 0.667 | 1.46 | 0.564 | 0.971 | 1.44 | 1.18 | 0.848 | 2.22 |
| AVRYIYTIDGS [DCX_Y105_G100A] | 0.979 | 20.1 | 0.76 | 0.948 | 0.65 | 0.552 | 0.579 | 0.709 | 0.439 | 1.2 | 3.86 | 1.41 | 0.972 | 0.629 | 0.727 | 3.18 |
| GQKVAYGGTGD [ALDH3A1_Y305] | 0.756 | 0.608 | 0.48 | 0.582 | 0.268 | 0.342 | 0.354 | 0.416 | 0.384 | 0.558 | 0.349 | 0.387 | 0.417 | 0.412 | 0.569 | 0.371 |
| AAVDEYLEYRR [FAM221A_Y17] | 0.846 | 1.17 | 0.539 | 1.1 | 0.531 | 0.477 | 0.513 | 0.522 | 0.401 | 1 | 0.62 | 0.863 | 1.21 | 0.469 | 0.698 | 0.925 |
| KGEDFYCVTRH [FHL1_Y149_C153R] | 0.766 | 0.694 | 0.357 | 1.22 | 0.592 | 0.558 | 0.498 | 0.715 | 0.662 | 1.2 | 0.633 | 0.808 | 1 | 0.82 | 0.835 | 0.794 |
| SLDLSYFHTSS [EMD_Y181_P183H_YF] | 0.907 | 0.591 | 0.599 | 0.799 | 0.517 | 0.6 | 0.549 | 0.595 | 0.441 | 0.881 | 0.464 | 0.559 | 1.06 | 0.566 | 0.645 | 0.466 |
| RFLRGYRQHAF [HLA-A_Y137_D140H_YF] | 0.636 | 0.284 | 0.495 | 0.606 | 0.64 | 0.599 | 0.564 | 0.701 | 0.598 | 1.34 | 0.648 | 0.581 | 0.933 | 0.706 | 1.02 | 0.805 |
| EEGESHVCSSD [DCX_Y125_Y125H] | 1.25 | 0.83 | 0.623 | 0.96 | 0.465 | 0.545 | 0.518 | 0.573 | 0.519 | 1.07 | 0.54 | 0.497 | 0.945 | 0.528 | 0.673 | 0.525 |
| RLCQDYDIIGP [ANK1_Y1073_T1075I] | 0.703 | 0.781 | 1.29 | 2.56 | 10 | 12.7 | 2.35 | 1.84 | 1.81 | 1.26 | 1.6 | 2.46 | 1.17 | 1.26 | 0.663 | 1.47 |
| DVSVVYSEVKT [FCRL4_Y493] | 0.789 | 11.9 | 1.11 | 0.991 | 0.631 | 0.592 | 0.775 | 0.751 | 4.14 | 1.05 | 4.99 | 5.21 | 1.07 | 0.834 | 1.22 | 4.13 |
| GVFSRYFTTFD [CLCA1_Y661_YF] | 0.891 | 0.789 | 0.395 | 0.954 | 0.458 | 0.512 | 0.468 | 0.631 | 0.433 | 0.959 | 0.438 | 0.661 | 1.15 | 0.393 | 0.679 | 0.481 |
| CRERPYGGGGG [FUS_Y526_R521C] | 0.87 | 0.593 | 0.651 | 0.631 | 0.552 | 0.406 | 0.556 | 0.468 | 0.647 | 1.13 | 0.389 | 0.481 | 0.587 | 0.438 | 0.459 | 0.377 |

Continued, in another order:

| SH2 binding enrichment (Grb2 SH2) | SH2 binding enrichment (SHP2-C SH2) | SH2 binding enrichment (c-Src SH2) | Sequence | phosphorylation enrichment (AncSZ) | phosphorylation enrichment (EPHB1) | phosphorylation enrichment (EPHB2) | phosphorylation enrichment (FGFR1) | phosphorylation enrichment (FGFR3) | phosphorylation enrichment (Fer (mouse)) | phosphorylation enrichment (Fes) | phosphorylation enrichment (Fyn) | phosphorylation enrichment (Hck) | phosphorylation enrichment (Jak2) | phosphorylation enrichment (MERTK) | phosphorylation enrichment (c-Abl (mouse)) | phosphorylation enrichment (c-Src) |
| --- | --- | --- | --- | --- | --- | --- | --- | --- | --- | --- | --- | --- | --- | --- | --- | --- |
| 0.99 | 0.762 | 0.68 | KNITEYCRDLI [RECQL_Y492] | 0.877 | 0.544 | 0.606 | 0.476 | 0.691 | 0.502 | 1.05 | 0.477 | 0.471 | 0.791 | 0.397 | 0.66 | 0.42 |
| 0.935 | 0.874 | 1.21 | HDRNTYEKYLG [TF_Y666] | 2.4 | 0.781 | 0.759 | 0.676 | 0.909 | 0.668 | 0.796 | 1.41 | 1.4 | 0.453 | 0.765 | 0.731 | 1.82 |
| 0.901 | 1.04 | 3.98 | NQDRTYYERVR [SPEN_Y632_S635R] | 0.617 | 0.411 | 0.467 | 0.457 | 0.486 | 0.511 | 0.639 | 0.606 | 2.31 | 0.499 | 0.452 | 0.525 | 0.896 |
| 0.729 | 0.552 | 0.576 | SSDKVYAHQMD [MLH1_Y379_V384D] | 0.611 | 0.537 | 0.502 | 0.452 | 0.52 | 0.395 | 0.708 | 0.493 | 0.419 | 0.497 | 0.408 | 0.442 | 0.491 |
| 1.22 | 1.24 | 1.7 | CTTIHYNHMCN [TP53_Y234_Y236H] | 0.692 | 0.445 | 0.456 | 0.432 | 0.506 | 0.369 | 0.796 | 0.455 | 0.414 | 0.688 | 0.476 | 0.574 | 0.422 |
| 0.926 | 0.829 | 0.496 | PLFKICVAELI [MRPL28_Y230_Y230C] | 1.2 | 1.06 | 0.888 | 0.499 | 1.14 | 0.707 | 1.57 | 0.73 | 0.692 | 1.31 | 0.469 | 0.718 | 0.394 |
| 0.69 | 0.531 | 0.413 | TFGQVYKGPHV [TNIK_Y40_R43P_YF] | 0.59 | 0.403 | 0.454 | 0.47 | 0.426 | 0.466 | 0.751 | 0.493 | 0.448 | 0.608 | 0.381 | 0.537 | 0.433 |
| 0.897 | 1.17 | 0.767 | FMRGMYFRMKD [PLA2G6_Y541_YF] | 1.16 | 0.518 | 0.542 | 0.442 | 0.657 | 0.399 | 1.12 | 0.455 | 0.428 | 1.14 | 0.419 | 0.645 | 0.417 |
| 1 | 0.761 | 0.5 | ARMTNYGLPRY [TSPAN12_Y138] | 0.576 | 0.463 | 0.588 | 0.495 | 0.441 | 0.576 | 0.739 | 0.619 | 0.554 | 0.606 | 0.497 | 0.66 | 0.534 |
| 2.43 | 1.14 | 1.05 | HFVFFYSFLLK [PTEN_Y178_R173H_YF] | 2.18 | 1.32 | 0.844 | 0.682 | 1.14 | 1.01 | 2.93 | 1.07 | 0.819 | 3.35 | 1.44 | 2.85 | 1.55 |
| 0.78 | 0.609 | 0.402 | KPLMPYMRYSR [SMARCE1_Y73] | 0.787 | 0.353 | 0.449 | 0.449 | 0.431 | 0.384 | 0.761 | 0.432 | 0.435 | 0.626 | 0.467 | 0.635 | 0.52 |
| 0.623 | 0.805 | 0.672 | KNKELYSDPFD [PDE10A_Y300_L303P] | 0.877 | 0.878 | 1.37 | 0.706 | 0.935 | 0.983 | 0.886 | 0.443 | 0.824 | 0.763 | 0.786 | 0.592 | 0.629 |
| 0.766 | 0.802 | 2.03 | KSIQLYDTPFE [SHB_Y297_G293S_YF] | 1.18 | 12.7 | 18 | 0.518 | 0.683 | 3.47 | 1 | 1.01 | 2.17 | 0.9 | 6.02 | 1.29 | 0.784 |
| 0.468 | 0.503 | 0.273 | RVQKRYIFDNV [RCN1_Y115] | 0.531 | 0.291 | 0.472 | 0.484 | 0.619 | 0.381 | 0.442 | 0.319 | 0.328 | 0.455 | 0.422 | 0.252 | 0.394 |
